As usually defined, the inhibition is how much of the control response was suppressed. Usually Ki stands for the dissociation constant of the complex between target and ligand, obtained from inhibition or displacement.

Consider four molecules from US6566113B1, “Polypeptide having cellobiohydrolase activity” (Takara Shuzo Co., Ltd., priority 1998, dated 2003).

For data set [1], the target named is polypeptide of the present invention (cellobiohydrolase, open reading frame PH1171) (Pyrococcus horikoshii, UniProt O58925). Nature of the data set: Inhibition of pNPC-degrading activity by glucose, cellobiose and various reagents. The data set is classed as biochemical, Pyrococcus horikoshii OT3. The settings on record: for inhibition of pNPC-degrading activity by dithiothreitol: up to 10 mM.

Data set [2] has as its target Cellobiohydrolase from Thermotoga sp. FjSS-B.1. The settings on record: cellobiohydrolase of Thermotoga sp. FjSS-B.1; read-out: inhibition constant (Ki) for cellobiose; cited from earlier work.
A short description of data set [3]: CMC-degrading activity (reducing ends, Park and Johnson method). The data set is classed as biochemical. As to the method:
When cellulose is degraded using a cellulose hydrolase such as endoglucanase or cellobiohydrolase, reducing ends of glucose residues are newly generated. Then, increase in the amount of reducing end in a unit reaction time was measured according to the Park and Johnson method using carboxymethylcellulose (CMC) as a substrate in order to confirm whether or not a polypeptide having an activity of hydrolyzing cellulose which newly generates reducing ends of glucose residues existed in the Escherichia coli extract.
A CMC solution was prepared by dissolving CMC (Sigma) in 100 mM sodium citrate buffer (pH 5.0) at a concentration of 1%. […] Absorbance at 690 nm was then measured. The amount of reducing end was determined as the amount of corresponding glucose based on a calibration curve prepared using glucose at a known concentration. […]
50 μl of a 50-fold dilution of the polypeptide solution of the present invention with water, 25 μl of a 2% CMC aqueous solution and 25 μl of one of the above-mentioned buffers were mixed together. […] The amount of reducing sugar contained in a supernatant obtained by centrifuging the reaction mixture was measured according to the Park and Johnson method, and the CMC-degrading activity was calculated. […]

Data set [4] is described as follows: pH and heat stability: remaining CMC-degrading / cellobiohydrolase activity after heating. The format is biochemical. The procedure: 25 μl of the polypeptide solution of the present invention and 25 μl of one of the buffers prepared in Example 3-(1) were mixed together. The mixture was heated at 95° C. for 10 minutes. 50 μl of 1% CMC solution in 0.1 M MES-NaOH buffer (pH 6.0) was added to 50 μl of a 50-fold dilution of the heated mixture with water. The mixture was reacted at 98° C. for 20 minutes. The amount of reducing sugar contained in a supernatant obtained by centrifuging the reaction mixture was measured according to the Park and Johnson method, and the CMC-degrading activity was calculated.
CMC was dissolved in 0.1 M MES-NaOH buffer (pH 6.0) to prepare a 1% CMC solution (pH 6.0). 50 μl of the MES buffer was added to 50 μl of the polypeptide solution of the present invention. The mixture was heated at 95° C. for 0, 1, 5 or 24 hours. 50 μl of the 1% CMC solution was added to 50 μl of a 50-, 200- or 500-fold dilution of a supernatant obtained by centrifuging the heated mixture with the MES buffer. The mixture was reacted at 98° C. for 20 minutes. The amount of reducing sugar contained in the reaction mixture was measured according to the Park and Johnson method to determine the CMC-degrading activity.

Data set [5] can be described thus: pNPC-degrading activity on synthetic substrate. The format is biochemical. Particulars: 5 mM pNPC, 98° C., 20 minutes, pH 6.0. As to the method: 50 μl of 10 mM pNPC solution in 0.1 M MES-NaOH buffer (pH 6.0) was added to 50 μl of the polypeptide solution of the present invention or a 2-, 5- 10- or 20-fold dilution thereof with 0.1 M MES-NaOH buffer (pH 6.0). The mixture was reacted at 98° C. for 20 minutes. Absorbance at 405 nm of a supernatant obtained by centrifugation was measured to determine the pNPC-degrading activity based on the amount of released p-nitrophenol (pNP).

A short description of data set [6]: 4-MUC-degrading activity, specific activity of purified polypeptide. The data set is classed as biochemical. The settings on record: 98° C., pH 6.0, 20 minutes. The procedure: A supernatant obtained by centrifuging the heated supernatant was subjected to anion exchange chromatography using HiTrap Q column (Pharmacia). The sample was applied to two 5 ml HiTrap Q columns connected in series. Elution was carried out using a linear gradient in 20 minutes from 50 mM MES-NaOH buffer (pH 6.0) to the same buffer containing 200 mM NaCl at a flow rate of 2 ml/minute. 50 μl of 6 mM 4-MUC solution in 100 mM MES-NaOH buffer (pH 6.0) was added to 50 μl of one of the serial dilutions of the respective fractions. The mixture was reacted at 98° C. for 20 minutes. Fluorescence value was measured at an excitation wavelength of 355 nm and an emission wavelength of 460 nm. The 4-MUC-degrading activity was calculated based on the amount of released 4-MU.
2 ml of the active fraction from the hydrophobic column chromatography was desalted by ultrafiltration, lyophilized and then hydrolyzed in the presence of gas-phase HCl at 135° C. for 3 hours. The hydrolysate was dissolved in 100 μl of water. […] The polypeptide corresponding to 60 mU of the 4-MUC-degrading activity was subjected to the amino acid analysis. Thus, the specific activity was determined to be 17.0 U/mg.

A short description of data set [7]: Identification of hydrolysis products by silica gel thin-layer chromatography. The data set is classed as biochemical. The procedure: The activity of hydrolyzing cellulose of the expressed polypeptide was identified as follows. Specifically, the expressed polypeptide solution was allowed to act on various substrates. Products were then identified on thin-layer chromatography.
75 μl of the expressed polypeptide solution was added to 75 μl of the phosphoric acid-swollen cellulose. The mixture was reacted at 98° C. for 8 hours. 60 μl of acetonitrile was added to the equal volume of the reaction mixture and mixed. A supernatant obtained by centrifugation was evaporated under reduced pressure to dryness. The residue was dissolved in 10 μl of water. 2 μl of the solution was subjected to silica gel thin-layer chromatography. Two rounds of development were carried out using silica gel 60F254 (Merck) as a thin-layer plate and ethanol:butanol:water=5:5:1 as a solvent for development. Orcinol-sulfuric acid reagent was sprayed onto the thin-layer plate after development and the plate was heated using a hot plate to observe the spots. […]
Reactions were carried out as described above using oligosaccharides as substrates except that the dilution rate of the expressed polypeptide solution was 10 and the reaction time was 2 hours. Supernatants obtained by centrifuging the reaction mixtures were analyzed on silica gel thin-layer chromatography as described above.

A value given as a limit tells only on which side of the number the result lay.

As to `O[C@H](CS)[C@H](O)CS` (racemic) [DTT, dithiothreitol], the “inhibition of pNPC-degrading activity by dithiothreitol” value in data set [1] (5 mM pNPC, 98° C., pH 6.0) is on record as “not inhibited”; in data set [1] (5 mM pNPC, 98° C., pH 6.0, listed as dithiothreitol) it was “Almost no inhibition”.
`O=C(O)CN(CCN(CC(=O)O)CC(=O)O)CC(=O)O` [EDTA, ethylenediaminetetraacetic acid]: in data set [1] (pH 6, read-out: inhibition of pNPC-degrading activity), the inhibition at 1000 µM is about 50%. Besides, the “inhibition of pNPC-degrading activity” value in data set [1] (reagent at 1 mM, 5 mM pNPC, 98° C., pH 6.0) is recorded as “about 50%”.
In the case of `O=C[C@H](O)[C@@H](O)[C@H](O[C@@H]1O[C@H](CO)[C@@H](O)[C@H](O)[C@H]1O)[C@H](O)CO` [cellobiose], the Ki in data set [2] is 200 µM.

B1: polypeptide of the present invention: polypeptide of SEQ ID NO:1 with thermostable cellobiohydrolase activity, expressed from open reading frame PH1171 of Pyrococcus horikoshii OT3 (protein)
chain: ENTTYQTPTGIYYEVRGDTIYMINVTSGEETPIHLFGVNWFGFETPNHVVHGLWKRNWEDMLLQIKSLGFNAIRLPFCTESVKPGTQPIGIDYSKNPDLRGLDSLQIMEKIIKKAGDLGIFVLLDYHRIGCTHIEPLWYTEDFSEEDFINTWIEVAKRFGKYWNVIGADLKNEPHSVTSPPAAYTDGTGATWGMGNPATDWNLAAERIGKAILKVAPHWLIFVEGTQFTNPKTDSSYKWGYNAWWGGNLMAVKDYPVNLPRNKLVYSPHVYGPDVYNQPYFGPAKGFPDNLPDIWYHHFGYVKLELGYSVVIGEFGGKYGHGGDPRDVIWQNKLVDWMIENKFCDFFYWSWNPDSGDTGGILQDDWTTIWEDKYNNLKRLMDSCSKSSSSTQSVIRSTTPTKSNTSKKICGPAILIILAVFSLLLRRAPR
modifications: Pyrococcus horikoshii OT3
As to B1, the “activity relative to that in the presence of 0.5 M NaCl” value in data set [3] (2.5 M NaCl) was “about 60%”; in data set [3] (absence of NaCl), “about 80%”. In data set [4] (95° C. for 10 minutes at pH 5 to 7), the “activity after heating in the absence of a substrate” value is on record as “not decreased”. The “retained CMC-degrading activity after heating” value in data set [4] (95° C. for 24 hours, pH 6.0) is listed as “about 90%”. Also, the “remaining activity after heating” value in data set [4] (95° C., pH 6, heating for additional 24 hours) was “About 80%”. Also, the “retained activity after heating” value in data set [4] (in the presence of a substrate at pH 6 at 95° C. for 5 hours) is “about 90%”. For the same molecule, the “retained cellobiohydrolase activity after heat treatment” value in data set [4] (treatment at 75° C. for 20 minutes), in data set [4] (treatment at 95° C. for 10 minutes) and in data set [4] (treatment at 95° C. for 5 hours) was at least 80% in each case. Moreover, in data set [5], the “pNPC-degrading activity versus amount of polypeptide” value was “increased depending on the concentration”. The “specific activity (4-MUC-degrading activity)” value in data set [6] is 17.0 U/mg. The “product from phosphoric acid-swollen cellulose (TLC)” value in data set [7] (98° C. for 8 hours) was “generation of cellobiose”. Besides, in data set [7] (cellotriose, cellotetraose, cellopentaose, 10-fold dilution, 98° C., 2 hours, pH 6.0), the “product from cellooligosaccharides (TLC)” value is given as “principal degradation product was cellobiose”.
